# Test results taken from publication PMC4159138, “Fission Yeast Pxd1 Promotes Proper DNA Repair by Activating Rad16^XPF and Inhibiting Dna2” (PLoS Biology, 2014).
# Columns and labels:
# [1] = target: Dna2;Cdc24-YFH (Schizosaccharomyces …, UniProt Q9URU2;O75004 1-1397;1-501, |); test: EMSA; 1 mM EDTA, no divalent cations; 100-300 ng Dna2-Cdc24; 50 mM Tris-HCl pH 7.5, 1 mM EDTA, 1 mM DTT, 0.1 mg/ml BSA, 50 mM NaCl, 5% glycerol, 15 fmol DNA in 10 µl, room temperature 30 min; 5% PAGE in 1x TBE; details: protein: native;native; tags: none stated (co-expressed with Cdc24-YFH);YFP-FLAG-His6; copies: 1;1; label: 5' 32P on oligo461; 18 bp duplex with 5' overhang 31 nt on oligo461
# Chain of Dna2;Cdc24-YFH (Q9URU2 whole entry, chain 1 of 2): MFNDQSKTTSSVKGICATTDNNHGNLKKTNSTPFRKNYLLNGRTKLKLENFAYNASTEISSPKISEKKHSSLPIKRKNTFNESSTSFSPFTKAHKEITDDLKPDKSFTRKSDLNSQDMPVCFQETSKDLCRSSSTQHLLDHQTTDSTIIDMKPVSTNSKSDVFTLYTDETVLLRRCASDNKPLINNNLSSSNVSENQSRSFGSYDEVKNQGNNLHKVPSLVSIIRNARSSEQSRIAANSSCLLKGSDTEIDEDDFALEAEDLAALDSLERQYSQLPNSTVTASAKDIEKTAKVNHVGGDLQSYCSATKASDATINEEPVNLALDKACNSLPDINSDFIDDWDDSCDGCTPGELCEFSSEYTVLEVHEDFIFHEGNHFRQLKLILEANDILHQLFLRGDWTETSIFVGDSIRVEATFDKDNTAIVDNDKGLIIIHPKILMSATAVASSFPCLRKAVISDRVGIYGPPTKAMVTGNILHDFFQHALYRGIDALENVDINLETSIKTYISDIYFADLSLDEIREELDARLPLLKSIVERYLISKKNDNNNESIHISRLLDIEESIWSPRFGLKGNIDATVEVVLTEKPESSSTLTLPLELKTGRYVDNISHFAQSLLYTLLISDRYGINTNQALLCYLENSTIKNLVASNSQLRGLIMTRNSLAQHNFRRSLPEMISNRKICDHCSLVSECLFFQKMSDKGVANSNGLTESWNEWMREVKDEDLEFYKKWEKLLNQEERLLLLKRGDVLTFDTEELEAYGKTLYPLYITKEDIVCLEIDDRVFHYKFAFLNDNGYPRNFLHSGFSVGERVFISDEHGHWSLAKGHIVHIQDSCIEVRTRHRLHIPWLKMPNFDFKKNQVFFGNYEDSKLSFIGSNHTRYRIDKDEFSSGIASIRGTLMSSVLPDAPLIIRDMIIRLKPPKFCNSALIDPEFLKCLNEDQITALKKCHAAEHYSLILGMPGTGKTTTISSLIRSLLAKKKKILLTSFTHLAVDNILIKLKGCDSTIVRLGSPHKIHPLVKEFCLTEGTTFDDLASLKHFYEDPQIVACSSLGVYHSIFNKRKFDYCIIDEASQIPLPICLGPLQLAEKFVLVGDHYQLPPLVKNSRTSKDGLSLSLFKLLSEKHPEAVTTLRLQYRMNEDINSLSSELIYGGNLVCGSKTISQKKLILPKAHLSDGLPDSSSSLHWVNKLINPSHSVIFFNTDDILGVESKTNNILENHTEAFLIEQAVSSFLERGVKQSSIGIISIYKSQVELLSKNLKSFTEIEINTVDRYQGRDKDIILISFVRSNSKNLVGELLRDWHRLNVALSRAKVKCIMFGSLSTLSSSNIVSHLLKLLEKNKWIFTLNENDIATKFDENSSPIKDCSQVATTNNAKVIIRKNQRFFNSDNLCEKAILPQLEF
# Chain of Dna2;Cdc24-YFH (O75004 whole entry, chain 2 of 2): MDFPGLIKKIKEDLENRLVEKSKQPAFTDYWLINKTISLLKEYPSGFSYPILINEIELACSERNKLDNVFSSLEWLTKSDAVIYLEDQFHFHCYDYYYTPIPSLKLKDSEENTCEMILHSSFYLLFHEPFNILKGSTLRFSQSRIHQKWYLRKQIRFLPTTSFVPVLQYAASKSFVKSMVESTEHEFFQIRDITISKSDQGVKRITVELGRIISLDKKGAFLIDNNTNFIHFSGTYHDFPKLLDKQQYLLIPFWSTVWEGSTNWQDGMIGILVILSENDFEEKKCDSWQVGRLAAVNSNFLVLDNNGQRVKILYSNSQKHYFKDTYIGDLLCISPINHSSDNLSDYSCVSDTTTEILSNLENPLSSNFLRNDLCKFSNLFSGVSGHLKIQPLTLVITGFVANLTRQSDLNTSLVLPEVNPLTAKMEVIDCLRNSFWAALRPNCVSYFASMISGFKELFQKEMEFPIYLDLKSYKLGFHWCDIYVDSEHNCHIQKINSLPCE
# [2] = target: Dna2;Cdc24-YFH;RPA (Schizosaccharomyces …, UniProt Q9URU2;O75004;Q92372;Q92373;Q92374 1-1397;1-501;1-609;1-279;1-104, ||); test: EMSA; 1 mM EDTA; supershifted higher-order complex, no Pxd1; 50 mM Tris-HCl pH 7.5, 1 mM EDTA, 1 mM DTT, 0.1 mg/ml BSA, 50 mM NaCl, 5% glycerol, 15 fmol DNA in 10 µl, room temperature 30 min; 5% PAGE in 1x TBE; details: protein: native;native;recombinant; tags: none stated (co-expressed with Cdc24-YFH);YFP-FLAG-His6;6xHis-GST on Rpa1 in plasmid pDB2129; copies: 1;1;1;1;1; label: 5' 32P on oligo461; 18 bp duplex with 5' overhang 31 nt on oligo461
binder,measurement,setting,value
5' overhang DNA (oligo461/oligo463) (dsDNA) DNA 1: CACGCTACCGAATTCTGACTTGCTAGGACATCTTTGCCCACGTTGACCC DNA 2: GGGTCAACGTGGGCAAAG,binding result,[1],binds
same,binding result,[2],binds
